# Assay results: PMC9010756
# Molecular target: GST-CGN(1–70) (GST-tagged cCGN, 1–70 amino acids) (canis (dog))
# Assay: pull-down
# GST-CGN(1–70) (GST-tagged cCGN, 1–70 amino acids) (canis (dog)), sequence (A7YH32 1-70): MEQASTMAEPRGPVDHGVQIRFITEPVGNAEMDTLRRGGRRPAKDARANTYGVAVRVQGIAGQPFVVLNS
substance,measurement,value
GFP-hZO-1-Cter (1619–1748) (from UniProt Q07157 1619-1748) (domain or fragment),fold stronger binding than larger fragments,> 4 fold
